Measurements: PMC4716839 (eLife, 2015)

B2: GST-tagged mouse Dna2 α1OB (α1 helix and OB domain, residues 1 to 122) (domain or fragment, UniProt Q6ZQJ5 1-122, looked up)
chain: MEPLDELDLLLLEEDGGAEAVPRVELLRKKADALFPETVLSRGVDNRYLVLAVETSQNERGAEEKRLHVTASQDREHEVLCILRNGWSSVPVEPGDIVHLEGDCTSEPWIIDDDFGYFILYP
notes: Dna2 nuclease-helicase, mouse, residues 1-122 (α1 helix and OB domain); full-length mouse Dna2 has residues 1 to 1062; Cloned into a pGEX-4T vector; also called GST-α1OB
B3: mouse Rpa heterotrimer (Rpa70, Rpa32, Rpa14) (complex)
chain 1: MVGHLSEGAIEVMIQQENTSIKPILQVINIRPISTGNRSPRYRLLMSDGLNTLSSFMLATQLNTLVEGGQLASNCVCQVHKFIVNTLKDGRKVVVLMDLEVMKSAEDVGLKIGNPVPYNEGYGQQQQQQQQQQQQAVPSPASAATPPASKPQPQNGSLGMGSTAAKAYGASKPFGKPAGTGLLQPSGGTQSKVVPIASLTPYQSKWTICARVTNKSQIRTWSNSRGEGKLFSLELVDESGEIRATAFNEQVDKFFPLIEVNKVYYFSKGALKIANKQFSAVKNDYEMTFNNETSVLPCEDGHHLPTVQFDFTGIGDLESKAKDALVDIIGICKSYEDSIKITVKSNNREVAKRNIYLMDMSGKVVTTTLWGEDADKFDGSRQPVMAIKGARVSDFGGRSLSVLSSSTVIVNPDIPEAYKLRGWFDSEGQALDGVSISDHRSGGAGGGNTNWKTLHEAKSENLGQGDKADYFSTVAAVVFLRKENCMYQACPTQDCNKKVIDQQNGLYRCEKCDREFPNFKYRMILSANIADFQENQWVTCFQESAEAILGQNTMYLGELKEKNEQAFEEVFQNANFRSFTFRIRVKLETYNDESRIKATVMDVKPVDFRDYGRRLIANIRKNM
chain 2: MWNSGFESFSSSTYGGAGGYTQSPGGFGSPTPSQAEKKSRVRAQHIVPCTISQLLSATLTDEVFRIGDVEISQVTIVGIIRHAEKAPTNIVYKIDDMTAPPMDVRQWVDTDDASGENAVVPPETYVKVAGHLRSFQNKKSLVAFKIIPLEDMNEFTAHILEVVNSHMMLSKPNSQASAGRPSMSNPGMSEPGNFSGNNFMPANGLTVVQNQVLNLIKACPRPEGLNFQDLRSQLQHMPVPSIKQAVDFLCNEGHIYSTVDDDHFKSTDAE
chain 3: MEDIMQLPKARVNASMLPQYIDRPVCFVGKLEKIHPTGKMFILSDGEGKNGTIELMEPLDEEISGIVEVVGKVTAKATVLCASYTLFKEDTNRFDLELYNEAVKIINELPQFFPVGLPQHE
notes: Rpa70 subunit of Replication Protein A, mouse; Rpa32 subunit of Replication Protein A, mouse; Rpa14 subunit of Replication Protein A, mouse; The GST tag on Rpa32 is called cleavable; also called heterotrimeric Rpa; full-length Rpa; source: Hi-5 insect cells co-infected with two baculoviruses, purified as described (Fan and Pavletich, 2012); copies: + +

How the values were obtained:
Conditions in all cases: both partners purified
[1] = molecular target: T1, mouse Rpa70N (residues 1–122) (mouse, UniProt Q8VEE4 1-122); assay: pull-down; GST-tagged mouse Dna2 fragment or GST (30 μM in Figure 4A) with an equal molar amount of Rpa or Rpa fragment; 20 mM Tris-HCl, 80 mM NaCl, 0.3 mM TCEP, 2% glycerol, pH 8.0, 4°C, 30 min, then glutathione beads; eluted with 20 mM glutathione, SDS-PAGE
T1 construct: Rpa70, mouse, residues 1-122 (OBN domain); also called Rpa70N polypeptide; not shown: His6-SUMO, N-terminal, cleaved
T1 sequence (looked up): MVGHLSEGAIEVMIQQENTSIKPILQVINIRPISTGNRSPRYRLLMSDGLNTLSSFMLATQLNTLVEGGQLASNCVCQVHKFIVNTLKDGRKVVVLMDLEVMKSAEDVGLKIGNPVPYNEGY

[2] = molecular target: B3; assay: as above
[3] = molecular target: T2, mouse Rpa70NAB (Rpa70 fragment with the OBN, DBD-A and DBD-B domains, residues 1 to 431) (mouse, UniProt Q8VEE4 1-431); assay: as above
T2 construct: Rpa70, mouse, residues 1-431 (OBN, DBD-A, DBD-B); not shown: His6-SUMO, N-terminal, cleaved

[4] = molecular target: B2; assay: pull-down; GST pull-down as a1 with (dT)24 or (dT)8 ssDNA added; concentrations shown in the figure; bound Rpa70 quantified relative to the lane without DNA
[5] = molecular target: T3, human Rpa70N (OBN domain of Rpa70, residues 1–120) (human, UniProt P27694 1-120); assay: ITC; MicroCal ITC200, 20°C, 20 mM HEPES, 80 mM NaCl, 0.2 mM TCEP, pH 7.5; human polypeptides
T3 construct: Rpa70, human, residues 1-120 (OBN domain); Used in ITC and in the co-crystals; also called Rpa70 OBN; RPA70 OBN; source: E. coli BL21DE3, purified

[6] = molecular target: T4, human Rpa70NAB (residues 1–422) (human, UniProt P27694 1-422); assay: as above
T4 construct: Rpa70, human, residues 1-422 (OBN, DBD-A, DBD-B); source: E. coli BL21DE3, purified

[7] = molecular target: T5, mouse Rpa70AB (residues 191–431) (mouse, UniProt Q8VEE4 191-431); assay: pull-down; GST-tagged mouse Dna2 fragment or GST (30 μM in Figure 4A) with an equal molar amount of Rpa or Rpa fragment; 20 mM Tris-HCl, 80 mM NaCl, 0.3 mM TCEP, 2% glycerol, pH 8.0, 4°C, 30 min, then glutathione beads; eluted with 20 mM glutathione, SDS-PAGE
T5 construct: Rpa70, mouse, residues 191-431 (DBD-A and DBD-B); also called Rpa70AB polypeptide; not shown: His6-SUMO, N-terminal, cleaved

T4 sequence (P27694 1-422): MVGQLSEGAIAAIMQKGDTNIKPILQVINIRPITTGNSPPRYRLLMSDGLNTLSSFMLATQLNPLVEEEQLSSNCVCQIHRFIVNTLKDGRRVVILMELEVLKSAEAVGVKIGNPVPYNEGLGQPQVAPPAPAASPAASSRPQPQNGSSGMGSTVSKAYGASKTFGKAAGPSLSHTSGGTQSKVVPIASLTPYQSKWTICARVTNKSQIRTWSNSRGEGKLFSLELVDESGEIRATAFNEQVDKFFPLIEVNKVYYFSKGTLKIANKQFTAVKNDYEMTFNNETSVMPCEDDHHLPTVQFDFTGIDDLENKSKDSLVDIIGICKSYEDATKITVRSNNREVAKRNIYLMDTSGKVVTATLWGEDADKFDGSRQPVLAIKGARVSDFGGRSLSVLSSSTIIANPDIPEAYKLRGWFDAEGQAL
T3 sequence (P27694 1-120): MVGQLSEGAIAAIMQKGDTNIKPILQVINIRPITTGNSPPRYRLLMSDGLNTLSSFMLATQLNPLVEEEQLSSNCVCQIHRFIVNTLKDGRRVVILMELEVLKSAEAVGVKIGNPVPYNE

B1: GST-tagged mouse Dna2 α1 (residues 1–20) (peptide, UniProt Q6ZQJ5 1-20, looked up)
chain: MEPLDELDLLLLEEDGGAEA
notes: Dna2, mouse, residues 1-20 (α1 helix); Cloned into a pGEX-4T vector; also called GST-α1
B1: binds [1].

B2: binds [2]; binds [3].

In the case of B3, the “fold reduction of bound Rpa by one molar equivalent of (dT)24 ssDNA” value [4] is reported as roughly 4 fold.

B4: human Dna2 α1 (residues 1–20), polypeptide used in ITC (peptide, UniProt P51530 1-20, looked up)
chain: MEQLNELELLMEKSFWEEAE
notes: Dna2, human, residues 1-20 (α1 helix); also called Dna2 α1 helix; source: E. coli BL21DE3, purified
B4 was tested, and the Kd [5] was 34 ± 7 µM.

B5: human Dna2 α1OB (residues 1–122) (domain or fragment, UniProt P51530 1-122, looked up)
chain: MEQLNELELLMEKSFWEEAELPAELFQKKVVASFPRTVLSTGMDNRYLVLAVNTVQNKEGNCEKRLVITASQSLENKELCILRNDWCSVPVEPGDIIHLEGDCTSDTWIIDKDFGYLILYPD
notes: Dna2, human, residues 1-122 (α1 helix and OB domain); source: E. coli BL21DE3, purified
With B5 the Kd [6] was 12 ± 1 µM.

B6: GST-tagged mouse Dna2 OB (residues 21–122) (domain or fragment, UniProt Q6ZQJ5 21-122, looked up)
chain: VPRVELLRKKADALFPETVLSRGVDNRYLVLAVETSQNERGAEEKRLHVTASQDREHEVLCILRNGWSSVPVEPGDIVHLEGDCTSEPWIIDDDFGYFILYP
notes: Dna2, mouse, residues 21-122 (OB domain); Cloned into a pGEX-4T vector; also called GST-OB
B6: binds [7].
